In patent US20120277142A1 (HANALL BIOPHARMA, published 2012):
Changes are numbered by the printed parent chain.

B1: TNFRI105-S46 (receptor)
chain: MDSVCPQGKYIHPQNNSICCTKCHKGTYVYNDCPGPGQDTDCRECESGSFTAIENFLPGCLSCSKCRKEMGQVEISSCTVDRDTVCGCRKNQYRHYWSENLFQCFN
notes: Met-TNFRI105 superlead mutant made in E. coli
B2: TNFRI105-S47 (receptor)
chain: B1 chain with I53M
notes: as for B1

Target: T1, TNF-α (UniProt P01375 77-233, limits assumed)
T1 construct: also called tumor necrosis factor; ligand
Test: competition ELISA: sample vs plate-bound TNFRI190 for TNF-α, from IC50, relative to wild-type TNFRI105
Experimental: Each well was washed three times with 300 μL of washing buffer (0.05% Tween-20, PBS, pH 7.4) and incubated at room temperature for 2 hours with 300 μL of a blocking buffer (5% skim milk, PBS, pH 7.4). Then, each well was washed as mentioned above. A sample of interest was diluted to concentrations of 500 nM, 125 nM, 31 nM, 7.8 nM, 1.9 nM, 0.48 nM, 0.12 nM, and 0.03 nM in series and loaded in an amount of 100 μL into each well in duplicate. To each well was added 100 μL of 50 ng/ml TNF-α, followed by incubation at room temperature for 2 hours. After the wells were washed with a washing buffer, 100 μg/mL anti-TNF-α antibody solution was diluted 1/1000, added in an amount of 100 μL per each well, and incubated at room temperature for 2 hours. After the plates were washed with a washing buffer, a substrate was added in an amount of 100 μL to each well and reacted at room temperature for 15 min. In each well, 100 μL of the substrate 3,3′,5,5′-tetramethylbenzidine (RnD, Cat. No: DY999) was reacted at room temperature for 15 min, followed by adding 50 μL of 1.0 M sulfuric acid (Samchun Chemical, Cat. No: 52129) to each well to stop the reaction.
The affinity of the Met-TNFRI for TNF-α was assayed using the same procedure as in [Experimental Example 1]

T1 sequence (P01375 77-233 limits assumed): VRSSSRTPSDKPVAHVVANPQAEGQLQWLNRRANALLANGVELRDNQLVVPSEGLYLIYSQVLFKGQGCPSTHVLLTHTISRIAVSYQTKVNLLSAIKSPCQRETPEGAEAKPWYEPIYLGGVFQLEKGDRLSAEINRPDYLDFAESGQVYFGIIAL

| Binder | Relative Affinity for Ligand (%) |
| --- | --- |
| B1 | 547 |
| B2 | 497 |
